Measurements reported in patent publication US20240139329A1 (CALIFORNIA INSTITUTE OF TECHNOLOGY, published 2024).
Positions count from the first letter of the chain named.

Experiments:
[1] = biological target: T1, human interleukin 3 (IL3), expressed on microarray cells (human, UniProt P08700 20-152); experiment: cell microarray screen hit (title of Table 4)
T1 construct: also called hIL3
T1 sequence: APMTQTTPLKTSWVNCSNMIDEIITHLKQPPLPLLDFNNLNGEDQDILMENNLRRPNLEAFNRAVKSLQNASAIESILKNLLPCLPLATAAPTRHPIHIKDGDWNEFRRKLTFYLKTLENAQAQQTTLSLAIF

[2] = biological target: T2, Mouse SCA1 (LY6A), on cells (mouse, UniProt P05533 27-112); experiment: cell microarray, individual capsids, anti-AAV9 detection
T2 construct: whole, on cells; also called mouse LY6A
T2 sequence: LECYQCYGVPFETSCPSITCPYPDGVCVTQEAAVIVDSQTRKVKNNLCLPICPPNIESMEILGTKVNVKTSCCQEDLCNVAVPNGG
Protocol: To enable higher-throughput screening, the six capsids were tested as a pool. Pooled testing required additional dosage optimizing, first for the individual and then for the collective background binding levels of the included capsids (Table 5).

[3] = biological target: T3, mouse LRP6-E1E2 (N-half, AA 20-628) tagged with Fc (mouse IgG2a) (mouse, UniProt O88572 20-628); experiment: SPR, target-Fc captured on protein A chip, AAV analyte (FIG. 20B)
T3 construct: not shown: mouse IgG2a Fc
T3 sequence: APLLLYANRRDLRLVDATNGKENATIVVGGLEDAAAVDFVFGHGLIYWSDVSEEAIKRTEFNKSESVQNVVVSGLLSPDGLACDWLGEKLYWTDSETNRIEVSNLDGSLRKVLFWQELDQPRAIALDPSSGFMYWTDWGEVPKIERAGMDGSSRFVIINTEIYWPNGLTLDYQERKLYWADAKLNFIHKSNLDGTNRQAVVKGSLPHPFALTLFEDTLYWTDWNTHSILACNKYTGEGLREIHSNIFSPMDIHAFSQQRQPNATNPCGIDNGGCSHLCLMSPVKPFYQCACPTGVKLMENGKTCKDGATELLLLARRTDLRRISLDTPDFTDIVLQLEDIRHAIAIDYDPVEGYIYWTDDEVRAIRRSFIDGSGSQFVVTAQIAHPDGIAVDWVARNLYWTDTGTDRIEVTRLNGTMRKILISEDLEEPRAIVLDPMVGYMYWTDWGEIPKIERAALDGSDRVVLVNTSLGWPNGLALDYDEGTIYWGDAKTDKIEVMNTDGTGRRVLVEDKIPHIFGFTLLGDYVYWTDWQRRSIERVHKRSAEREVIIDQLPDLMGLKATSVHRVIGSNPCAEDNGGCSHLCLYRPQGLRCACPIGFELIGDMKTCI

[4] = biological target: T4, mouse LRP6-E3E4 (C-half, AA 629-1244) tagged with Fc (mouse IgG2a) (mouse, UniProt O88572 629-1244); experiment: as above
T4 construct: not shown: mouse IgG2a Fc
T4 sequence: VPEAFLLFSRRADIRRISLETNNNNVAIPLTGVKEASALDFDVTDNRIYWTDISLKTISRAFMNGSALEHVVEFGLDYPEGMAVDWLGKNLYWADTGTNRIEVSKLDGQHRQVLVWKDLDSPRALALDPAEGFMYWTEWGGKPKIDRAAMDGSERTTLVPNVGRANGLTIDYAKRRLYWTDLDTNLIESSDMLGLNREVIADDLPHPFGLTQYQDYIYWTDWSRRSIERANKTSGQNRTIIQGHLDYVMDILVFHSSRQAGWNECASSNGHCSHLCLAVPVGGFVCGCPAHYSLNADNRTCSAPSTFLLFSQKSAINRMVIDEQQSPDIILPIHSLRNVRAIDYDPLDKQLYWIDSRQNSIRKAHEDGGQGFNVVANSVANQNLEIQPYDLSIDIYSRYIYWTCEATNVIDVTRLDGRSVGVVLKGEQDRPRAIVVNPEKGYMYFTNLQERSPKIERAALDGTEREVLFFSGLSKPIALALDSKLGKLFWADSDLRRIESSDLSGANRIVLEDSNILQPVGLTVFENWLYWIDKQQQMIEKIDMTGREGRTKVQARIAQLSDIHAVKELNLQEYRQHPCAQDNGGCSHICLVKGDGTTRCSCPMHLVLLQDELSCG

[5] = biological target: T2, Mouse SCA1 (LY6A), on cells; experiment: cell microarray screen hit (membrane)
Protocol: After these controls, the six-capsid pool was tested in a full screen of approximately 6400 proteins, including 6000 human plasma membrane proteins and secreted and cell surface-tethered proteins, as well as approximately 400 heterodimers. […] To assign these hits to specific capsids, follow-up deconvolution screens were performed with each individual capsid from the pool (FIG. 12E). DNA oligos for the 22 identified hits, as well as the positive control CD86, were affixed in duplicate locations to new slides. A negative control condition with no AAV analyte and a positive control condition with CTLA4-Fc (CD86 binder) were also included.

B1: AAV-MaCPNS1 (other)
chain: MAADGYLPDWLEDNLSEGIREWWALKPGAPQPKANQQHQDNARGLVLPGYKYLGPGNGLDKGEPVNAADAAALEHDKAYDQQLKAGDNPYLKYNHADAEFQERLKEDTSFGGNLGRAVFQAKKRLLEPLGLVEEAAKTAPGKKRPVEQSPQEPDSSAGIGKSGAQPAKKRLNFGQTGDTESVPDPQPIGEPPAAPSGVGSLTMASGGGAPVADNNEGADGVGSSSGNWHCDSQWLGDRVITTSTRTWALPTYNNHLYKQISNSTSGGSSNDNAYFGYSTPWGYFDFNRFHCHFSPRDWQRLINNNWGFRPKRLNFKLFNIQVKEVTDNNGVKTIANNLTSTVQVFTDSDYQLPYVLGSAHEGCLPPFPADVFMIPQYGYLTLNDGSQAVGRSSFYCLEYFPSQMLRTGNNFQFSYEFENVPFHSSYAHSQSLDRLMNPLIDQYLYYLSRTINGSGQNQQTLKFSVAGPSNMAVQGRNYIPGPSYRQQRVSTTVTQNNNSEFAWPGASSWALNGRNSLMNPGPAMASHKEGEDRFFPLSGSLIFGKQGTGRDNVDADKVMITNEEEIKTTNPVATESYGQVATNHQSAQPHEGSSRAQAQTGWVQNQGILPGMVWQDRDVYLQGPIWAKIPHTDGNFHPSPLMGGFGMKHPPPQILIKNTPVPADPPTAFNKDKLNSFITQYSTGQVSVEIEWELQKENSKRWNPEIQYTSNYYKSNNVEFAVNTEGVYSEPRPIGTRYLTRNL
- binding result [1]: binds
- binding result [2]: no binding

B2: AAV-BI30 (other)
chain: B1 chain with P589N, H590N, E591S, G592T, S593R, S594G, R595G
- binding result [3]: binds
- binding result [4]: no binding

B3: AAV-MaCPNS2 (other)
chain: B1 chain with H590N, E591A, G592S, S593V, S594N, R595S
notes: also called AAV-MacCPNS2
- binding result [1]: binds
- binding result [2]: no binding

B4: AAV.CAP-B22 (other)
chain: MAADGYLPDWLEDNLSEGIREWWALKPGAPQPKANQQHQDNARGLVLPGYKYLGPGNGLDKGEPVNAADAAALEHDKAYDQQLKAGDNPYLKYNHADAEFQERLKEDTSFGGNLGRAVFQAKKRLLEPLGLVEEAAKTAPGKKRPVEQSPQEPDSSAGIGKSGAQPAKKRLNFGQTGDTESVPDPQPIGEPPAAPSGVGSLTMASGGGAPVADNNEGADGVGSSSGNWHCDSQWLGDRVITTSTRTWALPTYNNHLYKQISNSTSGGSSNDNAYFGYSTPWGYFDFNRFHCHFSPRDWQRLINNNWGFRPKRLNFKLFNIQVKEVTDNNGVKTIANNLTSTVQVFTDSDYQLPYVLGSAHEGCLPPFPADVFMIPQYGYLTLNDGSQAVGRSSFYCLEYFPSQMLRTGNNFQFSYEFENVPFHSSYAHSQSLDRLMNPLIDQYLYYLSRTIDGQSSKSQTLKFSVAGPSNMAVQGRNYIPGPSYRQQRVSTTVTQNNNSEFAWPGASSWALNGRNSLMNPGPAMASHKEGEDRFFPLSGSLIFGKQGTGRDNVDADKVMITNEEEIKTTNPVATESYGQVATNHQSDGTLAVPFKAQAQTGWVQNQGILPGMVWQDRDVYLQGPIWAKIPHTDGNFHPSPLMGGFGMKHPPPQILIKNTPVPADPPTAFNKDKLNSFITQYSTGQVSVEIEWELQKENSKRWNPEIQYTSNYYKSNNVEFAVNTEGVYSEPRPIGTRYLTRNL
notes: also called AAV9.CAP-B22
- binding result [5]: binds
- binding result [1]: binds
